Data taken from the supplement of paper PMC9170038.

What was measured:
MS2 coat protein [1] = experiment: apparent KD of MS2 coat protein, switch ON state; designed switch direction (-1 OFF switch, 1 ON switch): -1; higher = weaker reporter binding; details: FMN input: 0 or 200 uM; Eterna round: R93 (includes R88 designs)
How it was run: (§1)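 Designed RNA switches were made by on-chip transcription from Illumina sequencing clusters and then titrated with SNAP-549-labelled MS2 coat protein. Twofold steps ran from 0.7 or 1.5 nM to 3 µM, each lasting 0.8–1.5 h early and 10–20 min late, in 100 mM Tris-HCl pH 7.5, 80 mM KCl, 4 mM MgCl2, without or with constant ligand. Apparent KD is the per-design median of normalised cluster binding-curve fits.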

MS2 coat protein [2] = experiment: apparent KD of MS2 coat protein, switch OFF state (with FMN for OFF switches, without FMN for ON switches); designed switch direction (-1 OFF switch, 1 ON switch): -1; higher = weaker reporter binding; details: FMN input: 0 or 200 uM; Eterna round: R93 (includes R88 designs)
How it was run: as §1

With “AACCAACAUGAGGAUCACCCAUGUCAGGAUAUGCAUACAACAUACAACAUACAUCAAAGCAGAAGGGACAAAAA [Amethyst 83]” the “apparent KD of MS2 coat protein” value (MS2 coat protein [1]) was 26.1 nM and the “apparent KD of MS2 coat protein” value (MS2 coat protein [2]) was 24.1 nM.
In the case of “AACGAAUGAGGAUAUACAAACAGAAAAAUCAGACAUAACAGACAUGAGGAUCACCCAUGUAGAAGGCAUAAACA [JR_Exc002_Sub902]”, the “apparent KD of MS2 coat protein” value (MS2 coat protein [1]) is reported as 25.5 nM and the “apparent KD of MS2 coat protein” value (MS2 coat protein [2]) is reported as 18.7 nM.
In the case of “AACGAGUCAGGAUAUGCUAUAAAUUAAUAAAUAAAAUUAUAGCAGAAGGGACAUGAGGAUCACCCAUGUAAAUA [JR_Exc004_Sub201]”, the “apparent KD of MS2 coat protein” value (MS2 coat protein [1]) is reported as 45.7 nM and the “apparent KD of MS2 coat protein” value (MS2 coat protein [2]) is reported as 42.2 nM.
“AACGCACAUGAGGAUCACCCAUGUCAGGAUAUCGUGGCGGGAAAAACCGGGAAACGCACGAGAAGGGACAAAAA [EX1 Malc#18 Mod 14 - Jieux - Exclusion 1]” was tested, and the “apparent KD of MS2 coat protein” value (MS2 coat protein [1]) was 47.6 nM and the “apparent KD of MS2 coat protein” value (MS2 coat protein [2]) was 42.2 nM.
“AACUAGCUAGGAUAUACAUGAGGAUCACCCAUGUAAAAAAAAAAAAAAAAAUUUUUAUGUAGAAGGAGCUAGUA [Design 1 - Brourd - Exclusion 3]” was tested, and the “apparent KD of MS2 coat protein” value (MS2 coat protein [1]) was 27.9 nM and the “apparent KD of MS2 coat protein” value (MS2 coat protein [2]) was 35.4 nM.
For “AACUAGCUAGGAUAUACAUGAGGAUCACCCAUGUAAAAAAAAAAAAAAAGAUUUAUAUGUAGAAGGAGCUAGUA [Design 3 - Brourd - Exclusion 3]”, the “apparent KD of MS2 coat protein” value (MS2 coat protein [1]) was 31.6 nM and the “apparent KD of MS2 coat protein” value (MS2 coat protein [2]) was 61.8 nM.
In the case of “AACUCGUCAGGAUAUGCGCACAGAUAAUACGCUACACAAAAGCAGAAGGGACAUGAGGAUCACCCAUGUAAAUA [JR_Exc004_Sub503]”, the “apparent KD of MS2 coat protein” value (MS2 coat protein [1]) is reported as 35.1 nM and the “apparent KD of MS2 coat protein” value (MS2 coat protein [2]) is reported as 22.1 nM.
With “AACUGACAUGAGGAUCACCCAUGUCAGGAUAUGACAUCGAGAAAUAAAUAAAUCGUUGUCAGAAGGGACAUGAA [Design 79: Sub-opt TB]” the “apparent KD of MS2 coat protein” value (MS2 coat protein [1]) was 17.5 nM and the “apparent KD of MS2 coat protein” value (MS2 coat protein [2]) was 13.4 nM.
“AACUGACAUGAGGAUCACCCAUGUCAGGAUAUGACUUCAAAAAAAAAAAAAAAUGAUGUCAGAAGGGACAUGAA [Design 62: Sub-opt L]” was tested, and the “apparent KD of MS2 coat protein” value (MS2 coat protein [1]) was 24.4 nM and the “apparent KD of MS2 coat protein” value (MS2 coat protein [2]) was 19.3 nM.
With “AACUGACAUGAGGAUCACCCAUGUCAGGAUAUGCUUCAUAAAAACAAACAAAAAUGAUGCAGAAGGGACAUGGG [Design 31 :P Sub-opt 7]” the “apparent KD of MS2 coat protein” value (MS2 coat protein [1]) was 17.1 nM and the “apparent KD of MS2 coat protein” value (MS2 coat protein [2]) was 39.5 nM.
“AACUGUACAGGAUAUACAUGAGGAUCACCCAUGUGAGAAUUAAGUGGCGUACCACAAAGUAGAAGGGUACAGGA [Mat - Exclusion 3 - JL mod - D15]” was tested, and the “apparent KD of MS2 coat protein” value (MS2 coat protein [1]) was 36.4 nM and the “apparent KD of MS2 coat protein” value (MS2 coat protein [2]) was 192 nM.
In the case of “AAGAAACAAGGAUAUACAAGGAAGAAAGAAAAGAAAAGAAAACAUGAGGAUCACCCAUGUAGAAGGUGUUAGAA [EteRNA is fun!]”, the “apparent KD of MS2 coat protein” value (MS2 coat protein [1]) is reported as 40.3 nM and the “apparent KD of MS2 coat protein” value (MS2 coat protein [2]) is reported as 27.9 nM.
With “AAGAAACAAGGAUAUACAUGAGGAUCACCCAUGUAAAAGAAAGAAAGGGAAGAGAAAAGUAGAAGGUGUAAGAA [Publius Rubrius Barbarus]” the “apparent KD of MS2 coat protein” value (MS2 coat protein [1]) was 26.1 nM and the “apparent KD of MS2 coat protein” value (MS2 coat protein [2]) was 46 nM.
In the case of “AAGAAACAUGAGGAUCACCCAUGUAAGGAUAUGUAAAAGAAAAGAAAAGAAAGAAGAAACAGAAGGUACAAAGG [Wahankh Intef II]”, the “apparent KD of MS2 coat protein” value (MS2 coat protein [1]) is reported as 46 nM and the “apparent KD of MS2 coat protein” value (MS2 coat protein [2]) is reported as 33.7 nM.
For “AAGAAACAUGAGGAUCACCCAUGUCAGGAUAUAGAAAAGAAAAGAAAAGAAAGAAGAACUAGAAGGGACAAAGG [Menkare]”, the “apparent KD of MS2 coat protein” value (MS2 coat protein [1]) was 34.1 nM and the “apparent KD of MS2 coat protein” value (MS2 coat protein [2]) was 34 nM.
In the case of “AAGAAACAUGAGGAUCACCCAUGUCAGGAUAUCGAAAAGAAAAGAAAAGAAAGAAGAACGAGAAGGGACAAAGG [Qakare Ibi]”, the “apparent KD of MS2 coat protein” value (MS2 coat protein [1]) is reported as 59.6 nM and the “apparent KD of MS2 coat protein” value (MS2 coat protein [2]) is reported as 67.8 nM.
“AAGAAACAUGAGGAUCACCCAUGUCAGGAUAUGCAAGACUGACGAAAGUCAGUCAAAAGCAGAAGGGACUAGAA [7-pair stack]” was tested, and the “apparent KD of MS2 coat protein” value (MS2 coat protein [1]) was 28 nM and the “apparent KD of MS2 coat protein” value (MS2 coat protein [2]) was 51.5 nM.
With “AAGAAACAUGAGGAUCACCCAUGUCAGGAUAUUGAAGAAAGAAAGAAAGAAAGAAGAACAAGAAGGGACAAAGG [Gaius Vitrasius Pollio]” the “apparent KD of MS2 coat protein” value (MS2 coat protein [1]) was 44.3 nM and the “apparent KD of MS2 coat protein” value (MS2 coat protein [2]) was 33.3 nM.
“AAGAAACAUGAGGAUCACCCAUGUGAGGAUAUACAAGAAAGAAAGAAAGAAAGAAGAAGUAGAAGGCACAAAGG [Gaius Valerius]” was tested, and the “apparent KD of MS2 coat protein” value (MS2 coat protein [1]) was 31.4 nM and the “apparent KD of MS2 coat protein” value (MS2 coat protein [2]) was 14.4 nM.
